From patent US20260193317A1, “COMBINATION THERAPY WITH ACTRIIB RECEPTOR VARIANTS AND GLP-1 AGONISTS” (35PHARMA Inc., priority 2023, published 2026) come the findings set out here.

One data set concerns TGFβ superfamily ligands. Description: Neutralization profile across TGFβ superfamily ligands (HEK293 and HepG2 reporter assays, summary). The data set is classed as cell-based, human. Here is the method:
Potency testing by neutralization on cell-based assays. Characterization of the activin A, activin B, GDF-8, and GDF-11 inhibition potency (IC50) of the fusion proteins was performed using a cell-based reporter assay. TGFβ-reporter HEK293 cells were obtained from InvivoGen (San Diego, CA, cat. no. hkb-tgfb) and were maintained following the manufacturer's instructions. Briefly, cells were grown in high-glucose DMEM, containing 10% heat-inactivated FBS, 30 μg/mL blasticidin, 250 μg/mL hygromycin B, and 100 μg/mL zeocin (hereafter, “growth medium”). Once the cells reached 70-80% confluence, they were detached in growth medium by gently tapping on the flask. For all assays, cells were seeded in 96-well plates at a density of 20,000 cells per well in growth medium. Cells were left to attach for 10 minutes at room temperature (RT) prior to being transferred to a 37° C. incubator (5% CO2) overnight. The next day, treatments were prepared by combining the appropriate concentration of agent with activin A, activin B, GDF-8, or GDF-11 for 30 min at RT (shaking at 150 rpm). Treatments were conducted in high-glucose DMEM (serum-free and with no selection agents), and the final concentration of cytokine (ligand) was 0.3 nM. Growth medium was removed from the culture plates, and cells were treated with the appropriate mixes of fusion protein and cytokine. Treatment duration was for 18-22 h at 37° C. (5% CO2). All treatments were performed in technical duplicates and at least one or two independent experiments were conducted for each cytokine. At the end of the treatment period, supernatants were transferred to a new plate, and centrifuged at 300 RPM for 3 min. Forty microlitres of supernatant from each condition was transferred to a new plate, into which 180 μL of Quanti-Blue reagent (InvivoGen, cat. no. rep-qbs) was added. Quanti-Blue reagent was prepared following the manufacturer's instructions. Samples were incubated for 45 min at 37° C. At the end of the incubation, absorbance was read at 650 nm. The data were plotted in GraphPad Prism, which was used to calculate IC50 values as a non-linear regression.
Characterization of the BMP-9 and BMP-10 inhibition potency (IC50) of the fusion proteins was performed using a second cell-based reporter assay. Human hepatic HepG2 cells were transfected with a SEAP-encoding plasmid, in which SEAP expression is under the control of the murine Id1 promoter. A stable pool was generated from this transfection. Cells were grown in EMEM, containing 10% heat-inactivated FBS and 200 μg/mL zeocin (hereafter, “HepG2 growth medium”). […] For all assays, cells were seeded in 96-well plates at a confluence of 100,000 cells per well in HepG2 growth medium. Cells were left to attach for 10 minutes at RT prior to being transferred to a 37° C. incubator (5% CO2) overnight. The next day, treatments were prepared in EMEM (2.5% heat-inactivated FBS and with no selection agents) by combining the appropriate concentration of agent with BMP-9 or BMP-10 for 30 min at RT (shaking at 150 rpm). Treatments were conducted in EMEM (2.5% heat-inactivated FBS and with no selection agents), and the final concentration of BMP-9 and BMP-10 was 2 ng/mL and 40 ng/mL, respectively. HepG2 growth medium was removed from the culture plates, and cells were treated with the appropriate mixes of fusion protein and cytokine. Treatment duration was for 20-24 h at 37° C. (5% CO2). […]
On the technique in general: In a reporter assay the amount or activity of a reporter protein is the signal.

The next data set addresses T1, BMP-9 (Homo sapiens, UniProt Q9UK05).
T1 sequence (Q9UK05 320-429): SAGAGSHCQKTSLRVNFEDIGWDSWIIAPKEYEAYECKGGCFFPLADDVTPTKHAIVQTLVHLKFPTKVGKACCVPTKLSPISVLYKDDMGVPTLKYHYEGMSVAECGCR
The data set is described as follows: Small-scale BMP-9 ELISA with CHO supernatants. The data set is classed as binding. Particulars: BMP-9 10 ng/mL. Here is the method:
Small-scale testing of ActRIIB-ECD fusion proteins. Additional investigation of a series of exemplary agents was performed using proteins expressed in CHO cells. Briefly, DNA encoding the ActRIIB-ECD-Fc fusion constructs was transfected in cells seeded in 12-well plates in a final volume of 1 ml. After 7 days, the supernatant was harvested, clarified, and the amount of expressed protein in each well was quantified using standard methods. The potency of each agent for inhibition of activin A, BMP-9 and BMP-10 was determined in three separate assays.
The next day, the plate was washed three times. […] Expressed proteins in the supernatants were diluted 1 in 2 in assay diluent (0.5% BSA, 0.05% tween-20 in PBS) and 100 μl was added to the 96-well plate in technical duplicates. After a 1.5-hour incubation at RT, the plate was washed three times. […] In this assay, a loss of signal indicates less binding of the exemplary agent to BMP-9. Results are expressed as a % of the signal obtained with wild-type ActRIIB-Fc (P75).
Background: In an ELISA, binding on a coated surface is turned into a signal by an enzyme label.

Data set [1] in a line: SEC-HPLC monomer and HMW content of purified fusion proteins. The class given is physicochemical. The conditions noted are these: after Protein A purification. The text has this: Given that protein aggregation can be indicative of reduced conformational stability and decreased activity, Size-Exclusion Chromatography-High Performance Liquid Chromatography (SEC-HPLC) was used to determine the purity of each ActRIIB-ECD construct. This method measured the percentage of intact monomeric species as well as the presence of aggregates and/or degradation products.
All proteins expressed efficiently in CHO and/or 293 cells and purification efficiency of each using Protein A affinity chromatography was similar.

Data set [2] can be described thus: Skeletal muscle mass and Mss51 expression in lean mice. The class given is in vivo. As for the experimental part:
The effects of P1229 on body composition and metabolism in lean mice were further assessed.
Additional assays were performed to assess the relative expression level of Mss51, a skeletal muscle-specific gene. Mss51 is a key target of myostatin signaling, with a role in fatty acid oxidation, glycolysis, and oxidative phosphorylation.

The target in a further data set is T2, activin A (Homo sapiens, UniProt P08476).
T2 sequence (P08476 311-426): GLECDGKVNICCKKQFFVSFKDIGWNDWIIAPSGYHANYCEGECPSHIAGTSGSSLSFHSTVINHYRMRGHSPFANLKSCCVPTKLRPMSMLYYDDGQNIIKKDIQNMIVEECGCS
Description: Potency testing by ELISA: activin A binding. Particulars: for ELISA potency Activin A, potency fold-change: relative to reference (P1372 = 1). The text has this: Potency testing by ELISA. […] The next day, the plate was washed three times with buffer (Biolegend #421601).

For the molecule “P1229: hActRIIB L33W, 14 aa linker, IgG1-DL Fc; SEQ ID 211”, the “improved potency on activin A, GDF-8, and GDF-11 relative to P75” value with TGFβ superfamily ligands is ~ 4 fold. The “BMP-9 binding, ELISA signal relative to P75” value in the data set with BMP-9 is listed as “very low BMP-9 binding”. Also, in data set [1], the “high molecular weight (HMW) content (SEC-HPLC)” value was determined as 3% and the “monomer content (SEC-HPLC)” value amounted to 97%. Moreover, the “tibialis anterior and gastrocnemius weight” value in data set [2] (25 mg/kg twice weekly, seven days) is given as “significantly increased”. Moreover, the “Mss51 expression in the tibialis muscle relative to vehicle” value in data set [2] (5 or 25 mg/kg twice weekly, one week) was “dose-dependent decrease in Mss51 expression”.

B1: P1372: hActRIIB L33W, 14 aa linker, IgG1 YTE-DL Fc; SEQ ID 231 (protein)
chain: ETRECIYYNANWELERTNQSGLERCEGEQDKRWHCYASWRNSSGTIELVKKGCWLDDFNCYDRQECVATEENPQVYFCCCEGNFCNERFTHLPEAGGPEVTYEPPPTGGGGSGGGGSGGGGTHTCPPCPAPELLGGPSVFLFPPKPKDTLYITREPEVTCVVVDVSHEDPEVKFNWYVDGVEVHNAKTKPREEQYNSTYRVVSVLTVLHQDWLNGKEYKCKVSNKALPAPIEKTISKAKGQPREPQVYTLPPSRDELTKNQVSLTCLVKGFYPSDIAVEWESNGQPENNYKTTPPVLDSDGSFFLYSKLTVDKSRWQQGNVFSCSVMHEALHNHYTQKSLSLSPG
As to B1, the “impact of modifications in the Fc sequence on activin A, activin B, GDF-8, and GDF-11 potency” value in the data set on TGFβ superfamily ligands (all ligands) was “comparable to P1229”. For the same molecule, the “impact of modifications in the Fc sequence on BMP-9 and BMP-10 potency” value with TGFβ superfamily ligands (both ligands) is recorded as “comparable to P1229”. Also, the “ELISA potency Activin A, fold-change vs reference” value with activin A (D 0), with activin A (D 7 after storage at 2-8° C.) and with activin A (D 7 after storage at room temperature) was 1 (ref) throughout. The “ELISA potency Activin A, potency fold-change” value is reported as 1 (ref) fold with activin A (D 28, storage at 2-8° C.) and 1 (ref) fold with activin A (D 28, storage at room temperature). In addition, the “BMP-9 binding, ELISA signal relative to P75” value with BMP-9 was “near-undetectable binding to BMP-9”. Moreover, the “high molecular weight (HMW) content (SEC-HPLC)” value in data set [1] was 1%. Moreover, the “monomer content (SEC-HPLC)” value in data set [1] was 99%.
